Assay results from patent US20050053993A1, “Uses of an endothelial cell receptor” (priority 2002, published 2005).
Ends that are not written are not given here. Peptide text beside a SMILES is read from it. * marks the point of attachment. Biotin = O=C1N[C@H]2[C@H](CS[C@H]2CCCCC(=O)*)N1

Experiments:
HMVEC = HMVEC (Homo sapiens, UniProt P11021); experiment: VEGF-stimulated HMVEC migration (Boyden chamber); assay type: cell-based; conditions: for IC50: read-out: IC50 values, inhibition of VEGF stimulation HMVEC migration, 3 ng/ml VEGF, 4 hours at 37° C., 48 well Boyden chamber; for inhibition of migration of activated endothelial cells (in words): compared to rK5
Protocol: Endothelial cell migration assays: The effect of rK5 on endothelial cell migration was determined by two different methods. The first assay was performed in a 96 well plate with a cellulose membrane between the upper and lower chambers. HMVEC were starved of growth factors overnight, labeled with fluorescent calcein AM (50-100 nM), plated into a 96 well migration chamber (2.9×10^4/well) (Neuroprobe, Gaitherburg, Md.), and stimulated to migrate with VEGF (5 ng/mL). After 4 h, migrated cells were measured by fluorescence (Frevert C W, Wong V A, Goodman R B, Goodwin R, Martin T R. Rapid fluorescence-based measurement of neutrophil migration in vitro. J Immunol Methods. 1998 Apr. 1;213(1):41-52). In a second assay for cellular migration, a standard Boyden chamber was used (Polyerini, P. J., Bouck, N. P. & Rastinejad, F. Assay and purification of naturally occurring inhibitor of angiogenesis. Meth. Enzymol. 198, 440-450 (1991)). HMVEC cells were starved overnight in DME containing 0.1% bovine serum albumin (BSA) and harvested by scraping and resuspended in DME with 0.1% BSA at 1.5×10^6 cells per ml. Cells were added to the bottom of a 48-well, Boyden chamber. The chamber was assembled and inverted, and cells were allowed to attach for 2 hours at 37° C. to polycarbonate chemotaxis membranes (5 μm pore size) that had been soaked in 0.1% gelatin overnight and dried. The chamber was re-inverted, test substances, including activators were added to the wells of the upper chamber and the apparatus was incubated for 4 hours at 37° C. Growth factors were used, where indicated, at concentrations determined in preliminary experiments to give equivalent migration responses of about 100 cells migrated/high powered field (400×). […] Membranes were recovered, fixed and stained and the number of cells that had migrated to the upper chamber per 10 high power fields counted. Background migration to DME+0.1% BSA was subtracted and the data reported as the number of cells migrated per 10 high power fields (400×) or, when results from multiple experiments were combined, as the percent inhibition of migration compared to the positive growth factor control (Polyerini, P. J., Bouck, N. P. & Rastinejad, F. Assay and purification of naturally occurring inhibitor of angiogenesis. Meth. Enzymol. 198, 440-450 (1991)).

HMVECs = experiment: Competition of 3HK5 binding to endothelial cells; design: species or system human; conditions: 2 nM 3HK5; rK5(K82A) up to 500 nM
Protocol: Each K5 peptide or a N-terminal antibody to GRP78 was added to HMVECs at various concentrations for 1 hour at room temperature. Cells were washed and the amount of ^3HK5 bound was counted.
Binding of human ^125IrK5 to Endothelial Cells: Tritium-labeled rK5 was added to monolayers of 50,000 HMVEC cells that were either starved or stimulated for 16 hours by 15 ng/ml bFGF and 5 ng/ml VEGF in 96 well plates. The number of counts remaining bound to the cells after extensive washing determined total amount of rK5 bound (Dudani A K, Ganz P R. Endothelial cell surface actin serves as a binding site for plasminogen, tissue plasminogen activator and lipoprotein(a). Br J Haematol. 1996 October; 95(1): 168-78). Binding of ^125IK5 (dog) to Endothelial Cells and rK5 to Recombinant GRP78: The same methods as described above for the expression and purification of human K5 were used to express dog rK5 in E. coli. ^125IK5 (dog) was added to the wells and incubated at room temperature for 1 hour. After 1 hour the cells were washed and lysed with M-Per (Pierce, Racine, Wis.) and the amount of ^125IK5 (dog) bound was counted. Scatchard plot analysis was performed using Prism (GraphPad Software, Inc., San Diego, Calif.) software. Competition binding against 5 nM ^125IK5 (dog) was tested using a monoclonal antibody against GRP78 (N-20, Santa Cruz, Calif.) or a monoclonal antibody against K5 (Green Mountain Antibodies, Burlington, Vt.). The antibodies were added to HMVECs at various concentrations for 1 hour at room temperature. Cells were washed and the amount of bound ^125IK5 (dog) bound was counted. Competition binding was also tested against 2 nM 3HK5. K5 peptides or a c-terminal antibody to GRP78 (A-129, Santa Cruz, Calif.) were added to HMVECs at various concentrations for 1 hour at room temperature. Cells were washed, lysed and the amount of ^3HK5 bound was estimated by scintillation counting.

GRP78 (bovine brain) = biological target: T1, GRP78 (bovine brain) (Bos taurus, UniProt Q0VCX2); experiment: Ultracentrifugation binding of I125rK5(dog) with GRP78; conditions: 1 nM I125rK5(dog) + 1.5 nM GRP78; peptides 100 nM, rK5 1 nM
T1 construct: from tissue; host or cells: bovine brain
Protocol: Ultra centrifugation with 50,000 MW cut off filters was used with iodinated recombinant dog K5 (I^125rKS(dog)) and GRP78 (bovine brain). The GRP78 and I^125rK5 (dog) were incubated for 1 hour at room temperature. The solution was then transferred to ultracentrifuges and spun at 10,000×g for 2 min. The top chamber contained GRP78 (mw 78,000) and I^125rK5 (dog) that bound. The top and bottom solutions were counted for I125. Column A: 1 nM I^125rK5(dog). Column B: 1 nM I^125rK5 (dog)+1.5 nM GRP78. Column C: 1 nM I^125rK5(dog)+1.5 nM GRP78+100 nM N-terminal K5 peptide, LLPDVETPSEED. Column D: 1 nM I^125rK5(dog)+1.5 nM GRP78±100 nM active site K5 peptide PRKLYDY. Column E: 1 nM I^125rK5(dog)+1.5 nM GRP78+1 nM rK5 (unlabeled). The GRP78 bound to the labeled rK5 causing its retention on the top of the filter.

[1] = system: EAHY cell surface proteins (~75 kDa and ~95 kDa); experiment: S-tag-K5 affinity pull-down of biotinylated EAHY surface proteins; assay type: binding; conditions: 100 nM S-tag-K5; 1 μM peptides, 10 μM cold rK5
Protocol: The second method used to identify cell surface rK5 binding proteins was described previously (Zhang, J. C., et al, supra). Surface proteins on 4×10^6 EaHy cells were labeled with NHS-biotin. The cells were washed and lysed (M-Per, Pierce). Cell lysates were mixed with S-tag K5 for 1 hour at room temperature. S-tag K5 bound proteins were precipitated with S-protein agarose (Pierce). Bound proteins were eluted with excess rK5 or with excess PRKLYDY (SEQ ID NO:1) peptide. Eluted proteins were visualized with avidin-HRP and a chemiluminescent substrate. Mass spectroscopic analysis was used to identify the major protein bands.
In particular, surface proteins on 1×10^6 EAHY cells were labeled with NHS-biotin. The cells were washed 3× with PBS and lysed with M-pur. Cell lysates were mixed with (A) 100 nM S-tag-K5, (B) 100 nM S-tag-K5 plus 1 μM PRKLYDY, (C) 100 nM S-tag-K5 plus 10 μM cold rK5 and (D) 100 nM S-tag-K5 and N-terminal K5 peptide at 1 μM for 1 hour at room temperature. The K5 binding proteins were precipitated with S-protein-agarose. Bound proteins were eluted with 50 mM glycine buffer at pH 3.0 and run for PAGE analysis. Surface proteins (biotinylated) that bind K5 were visualized with avidin-HPR and a chemiluminescent substrate.

[2] = biological target: GRP78 on the surface of human cells (EAHY, HMVEC, HT1080) (human, UniProt P11021 19-654); experiment: cell-based or functional assay
GRP78 on the surface of human cells (EAHY, HMVEC, HT1080), sequence (P11021 19-654): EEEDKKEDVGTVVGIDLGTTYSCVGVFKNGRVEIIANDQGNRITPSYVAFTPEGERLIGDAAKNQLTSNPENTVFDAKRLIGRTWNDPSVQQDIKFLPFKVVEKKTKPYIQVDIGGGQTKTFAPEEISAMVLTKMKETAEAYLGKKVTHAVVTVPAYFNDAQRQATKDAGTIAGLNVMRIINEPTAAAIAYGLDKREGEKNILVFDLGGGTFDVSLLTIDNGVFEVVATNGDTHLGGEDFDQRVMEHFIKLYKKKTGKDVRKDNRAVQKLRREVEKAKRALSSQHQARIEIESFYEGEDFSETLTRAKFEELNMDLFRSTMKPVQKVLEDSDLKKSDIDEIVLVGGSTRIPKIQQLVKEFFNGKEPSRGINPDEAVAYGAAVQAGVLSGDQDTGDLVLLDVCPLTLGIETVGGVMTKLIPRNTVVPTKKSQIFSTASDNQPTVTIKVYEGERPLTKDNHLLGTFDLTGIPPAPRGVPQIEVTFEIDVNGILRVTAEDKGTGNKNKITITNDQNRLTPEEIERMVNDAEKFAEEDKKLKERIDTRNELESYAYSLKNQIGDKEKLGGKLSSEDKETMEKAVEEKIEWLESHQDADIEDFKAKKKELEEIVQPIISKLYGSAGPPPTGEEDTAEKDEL

HMVEC, sequence (P11021 19-654): as above
T1 sequence (Q0VCX2 20-655): as the sequence (P11021 19-654) above, with I114V, G626S, D629E, T630A, E632D counted along it

Molecule: Ac-QDWAAQEPHRHSIFTPETNPRAGLEKNY-NH2
- IC50 (HMVEC): > 1000 nM

Molecule: Ac-VLLPDVETPSEED-NH2 [Ac-VLLPDVETPSEED-NH2]
- IC50 (HMVEC): > 1000 nM

Molecule: Ac-KLYDY-NH2 [Ac-KLYDY-NH2]
- inhibition of migration of activated endothelial cells (in words) (HMVEC): equally potent compared to rK5

Molecule: N-term-S-tag-Kringle 5: S-protein tagged rK5 used as probe for isolation of the cell surface receptor
- inhibition of migration of activated endothelial cells (in words) (HMVEC): similarly active

Molecule: PRKLYDY (listed as Homo sapiens)
- inhibition of migration of activated endothelial cells (in words) (HMVEC): equally potent compared to rK5
- blocking of 3HK5 binding to endothelial cells (HMVECs): blocked
- inhibition of I125rK5(dog) binding to GRP78 (GRP78 (bovine brain)): inhibited
- competition of protein binding to the S-tag K5 column [1]: competed

Molecule: KLYD (listed as Homo sapiens)
- inhibition of migration of activated endothelial cells (in words) (HMVEC): equally potent compared to rK5

Molecule: CC(=O)N[C@@H](CC(C)C)C(=O)N[C@@H](Cc1ccc(O)cc1)C(=O)N[C@@H](CC(=O)O)C(=O)N[C@@H](Cc1ccc(O)cc1)C(N)=O [Ac-LYDY-NH2] (Ac-LYDY-NH2)
- IC50 (HMVEC): > 1000 nM

Molecule: Ac-MFGNGKGYRGKRATTVTGTP-NH2
- IC50 (HMVEC): > 1000 nM

Molecule: CC(=O)N[C@@H](CC(=O)O)C(=O)N[C@H](C(=O)N1CCC[C@H]1C(=O)N[C@@H](CCC(N)=O)C(N)=O)C(C)C [Ac-DVPQ-NH2] (Ac-DVPQ-NH2)
- IC50 (HMVEC): > 1000 nM

Molecule: LLPDVETPSEED (listed as Homo sapiens)
- blocking of 3HK5 binding to endothelial cells (HMVECs): not
- inhibition of I125rK5(dog) binding to GRP78 (GRP78 (bovine brain)): not
- competition of protein binding to the S-tag K5 column [1]: did not inhibit

Molecule: CC(C)C[C@H](NC(=O)[C@H](CCCCN)NC(=O)[C@H](CCCNC(=N)N)NC(=O)[C@@H]1CCCN1C(=O)CCCC[C@@H]1SC[C@@H]2NC(=O)N[C@@H]21)C(=O)N[C@@H](Cc1ccc(O)cc1)C(=O)N[C@@H](CC(=O)O)C(=O)N[C@@H](Cc1ccc(O)cc1)C(=O)O [Biotin-PRKLYDY] (Biotin-PRKLYDY-OH)
- inhibition of migration of activated endothelial cells (in words) (HMVEC): similarly active

B1: Ac-KLYDY-NH2 (peptide)
peptide: Ac-KLYDY-NH2
- IC50, inhibition of VEGF stimulated HMVEC migration [2]: 0.1 nM

B2: Ac-MFGNGKGYRGKRATTVTGTP-NH2 (peptide)
peptide: Ac-MFGNGKGYRGKRATTVTGTP-NH2
- IC50, inhibition of VEGF stimulated HMVEC migration [2]: > 1000 nM

B3: N-terminally biotinylated PRKLYDY peptide (peptide)
peptide: Biotin-PRKLYDY
- IC50, inhibition of VEGF stimulated HMVEC migration [2]: 0.23 nM

B4: Ac-RKLYDY-NH2 (peptide)
peptide: Ac-RKLYDY-NH2
- IC50, inhibition of VEGF stimulated HMVEC migration [2]: 0.12 nM

B5: Ac-VLLPDVETPSEED-NH2 (peptide)
peptide: Ac-VLLPDVETPSEED-NH2
- IC50, inhibition of VEGF stimulated HMVEC migration [2]: > 1000 nM

B6: Ac-RNPDGDVGGPW-NH2 (peptide)
peptide: Ac-RNPDGDVGGPW-NH2
- IC50, inhibition of VEGF stimulated HMVEC migration [2]: 0.5 nM

B7: N-term-S-tag-Kringle 5 (ligand, human, UniProt P00747 481-560, looked up, not shown: small tags and cut ends)
chain: CMFGNGKGYRGKRATTVTGTPCQDWAAQEPHRHSIFTPETNPRAGLEKNYCRNPDGDVGGPWCYTTNPRKLYDYCDVPQC
- IC50, inhibition of VEGF stimulated HMVEC migration [2]: 0.2 nM

B8: Ac-DVPQ-NH2 (peptide)
peptide: Ac-DVPQ-NH2
- IC50, inhibition of VEGF stimulated HMVEC migration [2]: > 1000 nM

B9: Ac-YTTNPRKLYDY-HN2 (peptide)
peptide: Ac-YTTNPRKLYDY-NH2
- IC50, inhibition of VEGF stimulated HMVEC migration [2]: 0.2 nM

B10: Ac-QDWAAQEPHRHSIFTPETNPRAGLEKNY-NH2 (peptide)
peptide: Ac-QDWAAQEPHRHSIFTPETNPRAGLEKNY-NH2
- IC50, inhibition of VEGF stimulated HMVEC migration [2]: > 1000 nM

B11: Ac-LYDY-NH2 (peptide)
peptide: Ac-LYDY-NH2
- IC50, inhibition of VEGF stimulated HMVEC migration [2]: > 1000 nM
